± gives the standard deviation of the averaged measurements.
System: ATP
Assay: switch fluorescence ratio, 500 uM ATP over buffer (Cy3 cluster intensity, sum of 5 cycles each) (fold (ratio)); higher = stronger signal-on switching upon ATP binding; sequences stand for … in TCGTCGGCAGCGTCAGATGTGTATAAGAGACAGTTTTTTTTTTTTTTTTTTTTTTTTT…TC
Settings: aptamer strand: ATP DNA aptamer (quencher-CACCTGGGGGAGTATTGCGGAGGAAGG + anchor), 100 nM annealed; ATP concentration: 500 uM
How it was run: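 Values give the fluorescence ratio for each switch-domain sequence, averaged from per-cluster ratios of summed target-cycle to summed buffer-cycle Cy3 intensity. The Cy3-labelled switching-strand clusters sat on a modified Illumina MiSeq flow-cell, were annealed to 100 nM quencher-labelled ATP aptamer, and were imaged in selection buffer, then after 15 min with 500 uM ATP at 22 °C. Five cycles ran with NaOH stripping and re-annealing between them, and clusters outside 100-1000 RFU were excluded.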
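Also: ATP exposure 15 min at 22 °C before imaging.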

Sequence: CCTGGCGTCG
- switch fluorescence ratio: 1.005 ± 0.0083

Sequence: CGGGCTGTTG
- switch fluorescence ratio: 0.963 ± 0.033

Sequence: GATTTTGGGT
- switch fluorescence ratio: 1.02 ± 0.038

Sequence: TGAGTGATGT
- switch fluorescence ratio: 1.01 ± 0.023

Sequence: TTAGGCCCTT
- switch fluorescence ratio: 1.02 ± 0.011

Sequence: ATAAGTCAAA
- switch fluorescence ratio: 0.99 ± 0.016

Sequence: TATGAATCAG
- switch fluorescence ratio: 0.998 ± 0.019

Sequence: CTGTCCTAGG
- switch fluorescence ratio: 1.036 ± 0.0033

Sequence: GACGGAGGGG
- switch fluorescence ratio: 1.01 ± 0.027

Sequence: GGATGGTGTT
- switch fluorescence ratio: 0.958 ± 0.026

Sequence: CGGGTTAGGA
- switch fluorescence ratio: 1.02 ± 0.036

Sequence: TAGAGACTGA
- switch fluorescence ratio: 1.023 ± 0.0022

Sequence: CCAAGCAGGG
- switch fluorescence ratio: 1.66 ± 0.059

Sequence: CGCCAGGGGA
- switch fluorescence ratio: 1.43 ± 0.59

Sequence: AGGCACAGAA
- switch fluorescence ratio: 1.019 ± 0.0098

Sequence: TTTTTGGTTG
- switch fluorescence ratio: 1.01 ± 0.012

Sequence: TGGGCTGCTT
- switch fluorescence ratio: 0.965 ± 0.017

Sequence: TAACAGGGGG
- switch fluorescence ratio: 0.995 ± 0.017

Sequence: GCGCTTGGGG
- switch fluorescence ratio: 0.982 ± 0.011

Sequence: CTGCGTGCGG
- switch fluorescence ratio: 0.99635 ± 0.00049

Sequence: ATTATTGGCG
- switch fluorescence ratio: 1.01 ± 0.042

Sequence: GAGGTTACGC
- switch fluorescence ratio: 0.988 ± 0.053

Sequence: ACTCCTGGTT
- switch fluorescence ratio: 1.01 ± 0.014

Sequence: TGGGTCCGCG
- switch fluorescence ratio: 1.123 ± 0.0092

Sequence: TCTAGTTAAA
- switch fluorescence ratio: 0.986 ± 0.0074

Sequence: CGATTATCTT
- switch fluorescence ratio: 1.01 ± 0.011

Sequence: GATGGGGCGC
- switch fluorescence ratio: 0.975 ± 0.069

Sequence: AGTAGCAAG
- switch fluorescence ratio: 1.08 ± 0.036

Sequence: TTCGGTTGGA
- switch fluorescence ratio: 0.984 ± 0.017

Sequence: AAAGGAGGAA
- switch fluorescence ratio: 0.989 ± 0.019

Sequence: AAAAAAGGTT
- switch fluorescence ratio: 1.07 ± 0.14

Sequence: CCAAGGGAAA
- switch fluorescence ratio: 0.9822 ± 0.0032

Sequence: TTGAGTGTGT
- switch fluorescence ratio: 0.9604 ± 0.0023

Sequence: GGTGTGGCGT
- switch fluorescence ratio: 1 ± 0.018

Sequence: TGATTAGAGG
- switch fluorescence ratio: 1.02 ± 0.1

Sequence: CCCCGGGGTT
- switch fluorescence ratio: 1.88 ± 1.2

Sequence: ATTATGTCTG
- switch fluorescence ratio: 0.966 ± 0.071

Sequence: ATGTTTGTTT
- switch fluorescence ratio: 0.993 ± 0.05

Sequence: CGGTCGGAGG
- switch fluorescence ratio: 0.974 ± 0.023

Sequence: TCCCTACTGT
- switch fluorescence ratio: 1.02 ± 0.017

Sequence: TTTCGGCCAG
- switch fluorescence ratio: 1.13 ± 0.17

Sequence: TGAGGTGAAA
- switch fluorescence ratio: 0.976 ± 0.03

Sequence: TTCCCGGGTG
- switch fluorescence ratio: 1.53 ± 0.55

Sequence: CGTAGGGGGC
- switch fluorescence ratio: 1.03 ± 0.023

Sequence: TACCCCGGTA
- switch fluorescence ratio: 1.04 ± 0.035

Sequence: AGCCGCTTCA
- switch fluorescence ratio: 0.9803 ± 0.0053

Sequence: TAGAGGGCTG
- switch fluorescence ratio: 1.01 ± 0.016

Sequence: ACTCGGGTAA
- switch fluorescence ratio: 1 ± 0.017

Sequence: TTACCGGGAT
- switch fluorescence ratio: 1.02 ± 0.031

Sequence: GGAGTACGG
- switch fluorescence ratio: 1.03 ± 0.028

Sequence: GACCTTGTGC
- switch fluorescence ratio: 1.03 ± 0.042

Sequence: TCTGAAAACT
- switch fluorescence ratio: 1.06 ± 0.0013

Sequence: GAAGGACGGG
- switch fluorescence ratio: 1 ± 0.025

Sequence: AACGTTGGAG
- switch fluorescence ratio: 1.02 ± 0.019

Sequence: TTTTCTGCCT
- switch fluorescence ratio: 1.07 ± 0.089

Sequence: CATGTTGGTT
- switch fluorescence ratio: 0.992 ± 0.032

Sequence: TAAATAAGTT
- switch fluorescence ratio: 1.004 ± 0.0097

Sequence: AATAGTTACT
- switch fluorescence ratio: 1.0234 ± 0.00037

Sequence: GGGTAGGGGG
- switch fluorescence ratio: 0.989 ± 0.02

Sequence: TGGGGGGAGC
- switch fluorescence ratio: 1 ± 0.022

Sequence: AGTTGTTGG
- switch fluorescence ratio: 0.982 ± 0.011

Sequence: GTATGAAAAG
- switch fluorescence ratio: 0.9736 ± 0.0061

Sequence: GGAGGAGAGC
- switch fluorescence ratio: 0.994 ± 0.015

Sequence: GAGTAGTGTT
- switch fluorescence ratio: 0.984 ± 0.02

Sequence: GAAGTAAAAA
- switch fluorescence ratio: 1.01 ± 0.026

Sequence: CGTTGCTCGG
- switch fluorescence ratio: 1 ± 0.0083

Sequence: ATGTGTTACC
- switch fluorescence ratio: 1.01 ± 0.021

Sequence: ATTAAGAGTA
- switch fluorescence ratio: 0.961 ± 0.012

Sequence: ATGGAGGCAA
- switch fluorescence ratio: 1.37 ± 0.12

Sequence: GATTTTGGTC
- switch fluorescence ratio: 0.967 ± 0.054

Sequence: TATTTTATTG
- switch fluorescence ratio: 1.03 ± 0.02

Sequence: CGGTTATACT
- switch fluorescence ratio: 1.25 ± 0.021

Sequence: GTTTATAATG
- switch fluorescence ratio: 0.986 ± 0.02

Sequence: TTCACGGCCC
- switch fluorescence ratio: 1.04 ± 0.013

Sequence: TAACTGTGGA
- switch fluorescence ratio: 1.08 ± 0.085

Sequence: TTCGGTCCGT
- switch fluorescence ratio: 0.981 ± 0.026

Sequence: GGCTTTGAGT
- switch fluorescence ratio: 0.9873 ± 0.0066

Sequence: TTAGAGCATT
- switch fluorescence ratio: 1 ± 0.026

Sequence: AGTTTAAAAG
- switch fluorescence ratio: 1.01 ± 0.024

Sequence: GGGTACGCTT
- switch fluorescence ratio: 1 ± 0.025

Sequence: GCGGGCGGCC
- switch fluorescence ratio: 0.9812 ± 0.0082

Sequence: TTTGGGTTCG
- switch fluorescence ratio: 0.986 ± 0.019

Sequence: ATCTGGTATG
- switch fluorescence ratio: 0.957 ± 0.037

Sequence: TGCTGGGGGA
- switch fluorescence ratio: 1.01 ± 0.025

Sequence: GGGGTTTAAT
- switch fluorescence ratio: 1 ± 0.034

Sequence: TATGTACACT
- switch fluorescence ratio: 1.06 ± 0.053

Sequence: ACATTTTTAG
- switch fluorescence ratio: 1.01 ± 0.013

Sequence: GGGGGGTGGC
- switch fluorescence ratio: 1.05 ± 0.15

Sequence: GTTTAAAAAA
- switch fluorescence ratio: 1 ± 0.021

Sequence: AATTGGTTTT
- switch fluorescence ratio: 0.982 ± 0.034

Sequence: GAGGTTAGCT
- switch fluorescence ratio: 0.976 ± 0.046

Sequence: AGCTAGGTAA
- switch fluorescence ratio: 1.01 ± 0.029

Sequence: TTTTGGTGGG
- switch fluorescence ratio: 0.9972 ± 0.0074

Sequence: TTTGAGTGAG
- switch fluorescence ratio: 0.9892 ± 0.0098

Sequence: GGATCATCGC
- switch fluorescence ratio: 1.027 ± 0.0065

Sequence: TGATACATAA
- switch fluorescence ratio: 1.028 ± 0.0097

Sequence: GTGAGATGTA
- switch fluorescence ratio: 0.991 ± 0.045

Sequence: TTTAGGGGAA
- switch fluorescence ratio: 1.02 ± 0.003

Sequence: TCCAGGTTGG
- switch fluorescence ratio: 1.15 ± 0.048

Sequence: TGAGCGAGTG
- switch fluorescence ratio: 0.957 ± 0.028

Sequence: AGTGGCTTTT
- switch fluorescence ratio: 1.002 ± 0.0081

Sequence: GGTTTGTGGG
- switch fluorescence ratio: 0.968 ± 0.013

Sequence: TTTGGGTTGG
- switch fluorescence ratio: 1.03 ± 0.13

Sequence: TTTTTTGTTG
- switch fluorescence ratio: 0.987 ± 0.029

Sequence: ATCGACGGG
- switch fluorescence ratio: 1.008 ± 0.0058

Sequence: TGCATGTCTT
- switch fluorescence ratio: 0.998 ± 0.033

Sequence: TAGCCTTTGG
- switch fluorescence ratio: 0.978 ± 0.034

Sequence: TCAAACGCGT
- switch fluorescence ratio: 1.01 ± 0.037

Sequence: AGATAATTTG
- switch fluorescence ratio: 0.99459 ± 0.00061

Sequence: ATGCAGGTCC
- switch fluorescence ratio: 1.03 ± 0.037

Sequence: GAGTATTTTC
- switch fluorescence ratio: 1.015 ± 0.0065

Sequence: TTACTCGGTC
- switch fluorescence ratio: 0.99 ± 0.052

Sequence: TTTTCAATTG
- switch fluorescence ratio: 1.01 ± 0.027

Sequence: TGGCAATGGG
- switch fluorescence ratio: 1.05 ± 0.017

Sequence: TCAGGGGGAA
- switch fluorescence ratio: 1.01 ± 0.024

Sequence: CGCGGGAAAA
- switch fluorescence ratio: 1.01 ± 0.099

Sequence: CAATGCGGTA
- switch fluorescence ratio: 0.976 ± 0.046

Sequence: ATCTATGATA
- switch fluorescence ratio: 0.954 ± 0.011

Sequence: TTTCGGATTT
- switch fluorescence ratio: 0.983 ± 0.012

Sequence: GATTGATGGT
- switch fluorescence ratio: 0.992 ± 0.021

Sequence: ACGGTGATCA
- switch fluorescence ratio: 1.03 ± 0.038

Sequence: AGAGAATGG
- switch fluorescence ratio: 0.951 ± 0.023

Sequence: GTAGCTGGGG
- switch fluorescence ratio: 0.98 ± 0.011

Sequence: ATGTATAGGA
- switch fluorescence ratio: 0.992 ± 0.029

Sequence: GCAGGGAGGG
- switch fluorescence ratio: 1 ± 0.041

Sequence: CCCGGGTTAT
- switch fluorescence ratio: 0.9942 ± 0.0075

Sequence: CTGCAACGGA
- switch fluorescence ratio: 1.13 ± 0.056

Sequence: CGGTGGATTC
- switch fluorescence ratio: 1.0049 ± 0.00055

Sequence: ATGTTTGCTT
- switch fluorescence ratio: 0.974 ± 0.025

Sequence: AATGGGTGAG
- switch fluorescence ratio: 0.982 ± 0.014

Sequence: CGAGGTACTG
- switch fluorescence ratio: 1.01 ± 0.0034

Sequence: ATTTGGGGCT
- switch fluorescence ratio: 0.981 ± 0.017

Sequence: AGGACAGGTG
- switch fluorescence ratio: 1.33 ± 0.055

Sequence: AAATAGTCTG
- switch fluorescence ratio: 0.972 ± 0.017

Sequence: TTTGTTCTTT
- switch fluorescence ratio: 1.02 ± 0.081

Sequence: GGGGATGGTC
- switch fluorescence ratio: 0.962 ± 0.0016

Sequence: TTTATGGACT
- switch fluorescence ratio: 1.03 ± 0.039

Sequence: GGAATTCGAT
- switch fluorescence ratio: 1.004 ± 0.006

Sequence: TTGATTTAAT
- switch fluorescence ratio: 1 ± 0.028

Sequence: CATAGGGGCG
- switch fluorescence ratio: 0.984 ± 0.023

Sequence: TTTACTATTG
- switch fluorescence ratio: 1.03 ± 0.03

Sequence: GATTGGGTTC
- switch fluorescence ratio: 0.9685 ± 0.0036

Sequence: AAATGTGCGA
- switch fluorescence ratio: 0.977 ± 0.019

Sequence: TCAATCTCCT
- switch fluorescence ratio: 1.03 ± 0.088

Sequence: AATAGAAAAT
- switch fluorescence ratio: 0.97 ± 0.061

Sequence: GTGAGCCACG
- switch fluorescence ratio: 0.9932 ± 0.0014

Sequence: GCAGCATCTG
- switch fluorescence ratio: 1.01 ± 0.024

Sequence: CTCAAAAGTA
- switch fluorescence ratio: 1.09 ± 0.11

Sequence: CAGTAGAGG
- switch fluorescence ratio: 0.979 ± 0.019

Sequence: TGGGTTCGAT
- switch fluorescence ratio: 1.02 ± 0.015

Sequence: TATGTAGGGG
- switch fluorescence ratio: 1.09 ± 0.14

Sequence: GGAAAACCAG
- switch fluorescence ratio: 0.982 ± 0.048

Sequence: GGACAATATA
- switch fluorescence ratio: 1.003 ± 0.0016

Sequence: CTCGGTTGAC
- switch fluorescence ratio: 1.07 ± 0.015

Sequence: CTTACTAGC
- switch fluorescence ratio: 1.02 ± 0.029

Sequence: TGAAGTTTTA
- switch fluorescence ratio: 0.989 ± 0.025

Sequence: GTGGGGAGTT
- switch fluorescence ratio: 0.99 ± 0.023
